Target: recombinant mouse CD39 (mouse) (UniProt P55772)
Experiment: BLI, Duha59 amine-coupled to AR2G biosensor, recombinant mouse CD39 as analyte, 1:1 model

recombinant mouse CD39 (mouse), sequence (P55772 38-478 limits assumed): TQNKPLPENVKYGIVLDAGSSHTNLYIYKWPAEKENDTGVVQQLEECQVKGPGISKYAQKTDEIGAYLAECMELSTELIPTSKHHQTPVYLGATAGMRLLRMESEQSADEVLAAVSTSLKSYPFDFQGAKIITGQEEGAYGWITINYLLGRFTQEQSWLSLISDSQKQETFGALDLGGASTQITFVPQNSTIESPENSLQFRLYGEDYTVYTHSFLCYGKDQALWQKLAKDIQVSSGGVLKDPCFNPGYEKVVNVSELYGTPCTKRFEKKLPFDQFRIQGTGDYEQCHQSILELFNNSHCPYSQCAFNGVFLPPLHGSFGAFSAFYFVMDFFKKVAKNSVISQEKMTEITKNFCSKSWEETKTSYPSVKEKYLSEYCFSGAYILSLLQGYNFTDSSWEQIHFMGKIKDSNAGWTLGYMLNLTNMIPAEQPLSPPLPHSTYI

- Kd: 1.09 nM
Substance: rat anti-mouse CD39 Duha59 clone (antibody)
